Laboratory results from patent publication US20190263905A1 (DINONA, published 2019).
Where a chain is given by its changes, count along the chain named. Each block holds one binder with its values, some of them ahead of it.

How the values were obtained:
[1] = target: T1, CD66c (CEACAM6) on CD66c-positive A549 non-small-cell lung cancer cells (UniProt P40199 35-320, limits assumed); experiment: flow cytometry on CD66c-positive A549 cells, FITC anti-human IgG
T1 construct: whole, on cells; also called CD66c antigen; NCA-90
T1 sequence (looked up): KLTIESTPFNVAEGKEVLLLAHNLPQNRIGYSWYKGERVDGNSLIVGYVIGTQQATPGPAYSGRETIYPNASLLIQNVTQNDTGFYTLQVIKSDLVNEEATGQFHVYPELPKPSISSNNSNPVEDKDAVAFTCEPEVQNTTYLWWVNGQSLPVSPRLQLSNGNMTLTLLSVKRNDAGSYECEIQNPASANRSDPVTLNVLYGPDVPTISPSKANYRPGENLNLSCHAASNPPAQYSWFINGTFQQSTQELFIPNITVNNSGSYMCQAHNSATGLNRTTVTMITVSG
Experimental: (§1) Each expressed 96 recombinant humanized antibody was poured and reacted in a test tube containing the same amount ([…]) of CD66c-positive A549 non-small-cell lung cancer cell line at 4° C. for 30 minutes, washed with PBS, and treated with FITC-conjugated goat anti-Human IgG (DiNona Inc, Korea) was added and incubated at 4° C. for 15 minutes. After washing with PBS, the cells were analyzed with a flow cytometer (Stratedigm, S1000EXi) and the results are shown below.
(§2) Among the 96 recombinant humanized antibody candidates, eight were firstly selected based on the degree of expression, the presence of aggregation, and the degree of cell binding (Table 9 and Table 10, FIGS. 3A to 3E).

[2] = target: T1, CD66c (CEACAM6) on CD66c-positive A549 …; experiment: flow cytometry on CD66c-positive A549 cells, mean fluorescence
Experimental: as §1, §2

[3] = target: T1, CD66c (CEACAM6) on CD66c-positive A549 …; experiment: flow cytometry on A549 cells, relative to chimeric antibody
Experimental: as §1, §2

[4] = target: T2, Antigen CD66c (CEACAM6; Sino Biological, Inc.) (UniProt P40199 35-320); experiment: ELISA, coated CEACAM6 100 ng/well, antibody 0.17 ng/ml
T2 construct: Bought antigen coated on the ELISA plate; construct not described; also called CD66c antigen; CECACAM6
T2 sequence (looked up): T1 sequence (looked up)
Experimental: (§3) Antigen CD66c (CEACAM6; Sino Biological, Inc.) and CEACAM1 antigen (Sino Biological, Inc.) were coated on a 96-well plate at 100 ng per well and then blocked. The primary antibody was diluted serially three fold from 10 ug/ml at initial concentration and was bound at 37° C. for 1 hour, and goat anti-Human Ig-HRP conjugate (Jackson ImmunoResearch) as a secondary antibody was diluted 1:10,000 and incubated at 37° C. for 30 minutes. The washing was carried out at three times between each step, and the TMB reaction was performed, stopped with 1N H₂SO₄ solution at the same amount of TMB solution (100 ul) and then OD value was measured at 450 nm.
(§4) As a result of the experiment, the binding affinities to CD66c antigen of the five kinds of recombinant humanized antibodies selected from among 96 kinds of recombinant humanized antibodies are shown in FIG. 4a, Table 12, FIG. 4b and Table 13. FIG. 4a and Table 12 show the binding capacity of the antibodies to CECACAM6 CD66c) antigen, and FIG. 4b and Table 13 are the results for the CEACAM1 (CD66a) antigen.

[5] = target: T2, Antigen CD66c (CEACAM6; Sino …); experiment: ELISA, coated CEACAM6 100 ng/well, antibody 41.15 ng/ml
Experimental: as §3, §4

[6] = target: T2, Antigen CD66c (CEACAM6; Sino …); experiment: ELISA, coated CEACAM6 100 ng/well, antibody 1111.11 ng/ml
Experimental: as §3, §4

[7] = target: T2, Antigen CD66c (CEACAM6; Sino …); experiment: ELISA, coated CEACAM6 100 ng/well, antibody 123.46 ng/ml
Experimental: as §3, §4

[8] = target: T2, Antigen CD66c (CEACAM6; Sino …); experiment: ELISA, coated CEACAM6 100 ng/well, antibody 4.57 ng/ml
Experimental: as §3, §4

[9] = target: T2, Antigen CD66c (CEACAM6; Sino …); experiment: ELISA, coated CEACAM6 100 ng/well, antibody 10000.00 ng/ml
Experimental: as §3, §4

[10] = target: T2, Antigen CD66c (CEACAM6; Sino …); experiment: ELISA, coated CEACAM6 100 ng/well, antibody 370.37 ng/ml
Experimental: as §3, §4

[11] = target: T2, Antigen CD66c (CEACAM6; Sino …); experiment: ELISA, coated CEACAM6 100 ng/well, antibody 13.72 ng/ml
Experimental: as §3, §4

[12] = target: T2, Antigen CD66c (CEACAM6; Sino …); experiment: ELISA, coated CEACAM6 100 ng/well, antibody 0.51 ng/ml
Experimental: as §3, §4

[13] = target: T2, Antigen CD66c (CEACAM6; Sino …); experiment: ELISA, coated CEACAM6 100 ng/well, antibody 3333.33 ng/ml
Experimental: as §3, §4

[14] = target: T2, Antigen CD66c (CEACAM6; Sino …); experiment: ELISA, coated CEACAM6 100 ng/well, antibody 1.52 ng/ml
Experimental: as §3, §4

% gated [1]: 71%
Mean [2]: 541
% (% gated × mean) [3]: 85%
B1: recombinant humanized anti-CD66c antibody Protein ID 3004 (Vk7 + VH5) (antibody, human IgG1, V domains shown)
VH: QVQLVQSGAEVKKPGASVKISCKASGYSFTDYTMNWVRQAHGQNLEWIGLINPFHGGTVSNQRFKVKATLTVDVSTNTAYMELSRLRSDDTAVYYCVRGDPVRHYYALAYWGQGTLVTVSS
VL: DIQMTQSPSTLSASVGDRVTITCGASENVYGTLNWYQRKPGKAPKLLIYGATNLADGVPSRFSGSGSGTEYTLTISSLQPDDFATYYCQNVLSAPYTFGGGTKLEIK
notes: also called #41

% gated [1]: 71%
Mean [2]: 523
% (% gated × mean) [3]: 82.2%
B2: recombinant humanized anti-CD66c antibody Protein ID 3046 (Vk8 + VH7) (antibody, human IgG1, V domains shown)
VH: B1 VH with V18M, H41P, N44G
VL: B1 VL with G24R, V58M
notes: also called #74

% gated [1]: 70%
Mean [2]: 554
% (% gated × mean) [3]: 85.8%
B3: recombinant humanized anti-CD66c antibody Protein ID 3010 (Vk7 + VH7) (antibody, human IgG1, V domains shown)
VH: B1 VH with V18M, H41P, N44G
VL: B1 VL
notes: also called #45

OD 450 nm [4]: 0.68 OD
% gated [1]: 70%
OD 450 nm [5]: 2.45 OD
OD 450 nm [6]: 3.34 OD
OD 450 nm [7]: 3.04 OD
OD 450 nm [8]: 1.32 OD
OD 450 nm [9]: 3.13 OD
Mean [2]: 561
OD 450 nm [10]: 3.23 OD
OD 450 nm [11]: 1.77 OD
% (% gated × mean) [3]: 86.9%
OD 450 nm [12]: 0.8 OD
OD 450 nm [13]: 3.26 OD
OD 450 nm [14]: 0.95 OD
B4: recombinant humanized anti-CD66c antibody Protein ID 3019 (Vk7 + VH10) (antibody, human IgG1, V domains shown)
VH: B1 VH with I20V, R38K, H41P, L70M
VL: B1 VL
notes: also called hu 3019; #51
